Source: US20220283173A1

Tests used:
Anti-Mx1-AF488 [1] = assay: competitive TR-FRET; unlabelled MxA at 0.006 (unit µ/mL [sic]) displacing Mx1-L4 from Anti-Mx1-AF488
Anti-Mx1-AF488 [2] = assay: competitive TR-FRET; unlabelled MxA at 0.098 (unit µ/mL [sic]) displacing Mx1-L4 from Anti-Mx1-AF488
Anti-Mx1-AF488 [3] = assay: competitive TR-FRET; unlabelled MxA at 25.000 (unit µ/mL [sic]) displacing Mx1-L4 from Anti-Mx1-AF488
Anti-Mx1-AF488 [4] = assay: competitive TR-FRET; unlabelled MxA at 1.563 (unit µ/mL [sic]) displacing Mx1-L4 from Anti-Mx1-AF488
Anti-Mx1-AF488 [5] = assay: competitive TR-FRET; unlabelled MxA at 0.024 (unit µ/mL [sic]) displacing Mx1-L4 from Anti-Mx1-AF488
Anti-Mx1-AF488 [6] = assay: competitive TR-FRET; unlabelled MxA at 0.000 (no competitor, the reference R0) with Mx1-L4 and Anti-Mx1-AF488
Anti-Mx1-AF488 [7] = assay: competitive TR-FRET; unlabelled MxA at 0.391 (unit µ/mL [sic]) displacing Mx1-L4 from Anti-Mx1-AF488
Anti-Mx1-AF488 [8] = assay: competitive TR-FRET; unlabelled MxA at 6.250 (unit µ/mL [sic]) displacing Mx1-L4 from Anti-Mx1-AF488

B1: Human myxovirus resistance protein A (MxA), unlabelled standard (protein)
chain: MVVSEVDIAKADPAAASHPLLLNGDATVAQKNPGSVAENNLCSQYEEKVRPCIDLIDSLRALGVEQDLALPAIAVIGDQSSGKSSVLEALSGVALPRGSGIVTRCPLVLKLKKLVNEDKWRGKVSYQDYEIEISDASEVEKEINKAQNAIAGEGMGISHELITLEISSRDVPDLTLIDLPGITRVAVGNQPADIGYKIKTLIKKYIQRQETISLVVVPSNVDIATTEALSMAQEVDPEGDRTIGILTKPDLVDKGTEDKVVDVVRNLVFHLKKGYMIVKCRGQQEIQDQLSLSEALQREKIFFENHPYFRDLLEEGKATVPCLAEKLTSELITHICKSLPLLENQIKETHQRITEELQKYGVDIPEDENEKMFFLIDKVNAFNQDITALMQGEETVGEEDIRLFTRLRHEFHKWSTIIENNFQEGHKILSRKIQKFENQYRGRELPGFVNYRTFETIVKQQIKALEEPAVDMLHTVTDMVRLAFTDVSIKNFEEFFNLHRTAKSKIEDIRAEQEREGEKLIRLHFQMEQIVYCQDQVYRGALQKVREKELEEEKKKKSWDFGAFQSSSATDSSMEEIFQHLMAYHQEASKRISSHIPLIIQFFMLQTYGQQLQKAMLQLLQDKDTYSWLLKERSDTSDKRKFLKERLARLTQARRRLAQFPG
Anti-Mx1-AF488 [1]
  R/R0: 0.94
Anti-Mx1-AF488 [2]
  R/R0: 0.97
Anti-Mx1-AF488 [3]
  R/R0: 0.32
Anti-Mx1-AF488 [4]
  R/R0: 0.72
Anti-Mx1-AF488 [5]
  R/R0: 0.99
Anti-Mx1-AF488 [6]
  R/R0: 1
Anti-Mx1-AF488 [7]
  R/R0: 0.89
Anti-Mx1-AF488 [8]
  R/R0: 0.43
